From patent US20220143136A1, “USE OF ANNEXINS IN PREVENTING AND TREATING MUSCLE MEMBRANE INJURY” (NORTHWESTERN UNIVERSITY, priority 2018, published 2022)
“Also recorded” adds a separate entry of the source.

Legend:
[1] = test system: mdx/hLTBP4 myofibers; test: Laser-induced membrane injury, FM 4-64 dye uptake, dystrophic myofibers; format: cell-based, mouse; conditions: 25 μg/ml extracellular recombinant protein vs vehicle control, dystrophic (DMD model) myofibers
Procedure: For recombinant myofibers studies, myofibers were isolated from mdx/hLTBP4 mice as described above. Myofibers were incubated in Ringer's media with or without 25 μg/ml recombinant annexin A6 (5186-A6-050, R&D systems). FM 4-64 ([…]) was added to the myofibers just prior to imaging. Images were acquired and quantitated as described above. FM 4-64 area was measured using FIJI at imaging endpoint from a single slice near the middle of the z-stack. Z-stack step size (0.125 μm) was acquired from cap end to end.
Multiphoton laser injury and imaging. Fibers were subjected to laser-induced damage at room temperature using the Nikon A1R-MP multiphoton microscope. Imaging was performed using a 25×1.1 NA objective directed by the NIS-Elements AR imaging software. Green fluorescence protein (GFP) and FM 4-64 were excited using a 920 nm wavelength laser and emission wavelengths of 575 nm and 629 nm were collected respectively. To induce laser damage on isolated myofibers, a diffraction limited spot (diameter approximately 410 nm) was created on the lateral membrane of the myofiber using a 920 nm wavelength laser at 10-15% laser power for 1 second. […]
Multiphoton laser injury and imaging. […] Green fluorescence protein (GFP) and FM 4-64 were excited using a 920 nm wavelength laser and emission wavelengths of 575 nm and 629 nm were collected respectively. […]

[2] = test system: tibialis anterior muscles of wildtype mice; test: Cardiotoxin injection and histology 7 days post injury; format: in vivo, mouse; conditions: 1 mg/kg retro-orbital 2 hours before cardiotoxin, vs BSA control
Procedure: Cardiotoxin injection and histology. […] Two hours post injection mice were sedated for a second time. While sedated the tibialis anterior muscles were injected along the midline with 10 μm cardiotoxin in 20 ul of PBS as described above. Seven days post injection, the muscle was isolated and frozen. Muscle sections were acquired every 100 μm from muscle tendon into the mid belly, fixed and stained with hematoxylin and eosin. Imaging was performed using a Zeiss Axio Observer A1 microscope (Zeiss, Oberkochen, Germany), using a 10× objective. ZEN software (Zeiss, Jena, Germany) was used for acquiring tiled images. Percent injury area was calculated as the average injured area (containing internal myonuclei) divided by total muscle area of 3 sections per muscle. One muscle from each group was excluded due to technical error in tissue processing. Damage area was measured using FIJI (NIH).

[3] = test system: Sgcg-null mice; test: Chronic injury, short-term chronic dosing and serum biomarker analysis; format: in vivo, mouse; conditions: for serum creatine kinase (CK) at day 14: 1 mg/kg once every three days for 14 days, vs PBS control
Procedure: Chronic Injury and biomarker analysis. […] Mice were injected once every 3 days for a period of 12 days. Serum was acquired as previously described (Demonbreun et al 2016a). Serum CK was analyzed for each mouse using the EnzyChrom Creatine Kinase Assay (catalog ECPK-100, BioAssay Systems) following the manufacturer's instructions. Lactate dehydrogenase was analyzed for each mouse using (LDH cytotoxicity kit MK401, Takara) following the manufacturer's instructions.
Serum collection and CK analysis.
Short-term chronic dosing regimen. […] An additional cohort of Sgcg-null mice had blood drawn as described above immediately prior to the first protein injection. Then, 1 mg/kg recombinant annexin A6 or annexin A2 (both produced by Northwestern's Protein Production Core) was injected into the right retro-orbital cavity of sedated mice, once every 3 days for a total of 5 injections and then blood drawn on day 14 post initial injection.

[4] = test system: mdx/hLTBP4 dystrophic muscle; test: Anti-HIS immunofluorescence localization after systemic injection, mdx/hLTBP4; format: in vivo, mouse; conditions: 6 hours post systemic injection, vs PBS
Procedure: Immunofluorescence microscopy. Sections (10 μm thick) from the center of frozen-embedded muscles were collected on the cryostat (chamber, −20° C.; sample, −15° C.; catalog number CM1950; Leica, Wetzlar, Germany) for immunostaining. Tissues were fixed with 4% paraformaldehyde for 10 minutes on ice. Block and permeabilization were with 0.1% Triton (catalog number X-100; Sigma-Aldrich), 10% fetal bovine serum, and PBS for 60 minutes. For dystrophin detection, anti-dystrophin (ab15277; Abcam, Cambridge, Mass.) was used at a dilution of 1:100 overnight at 4° C. Sections were PBS rinsed, incubated with secondary antibody goat anti rabbit (A11008, Invitrogen) for 1 hour, PBS rinsed, and mounted in vectashield with DAPI (H-1200, Vector Laboratories). Imaging was performed using a Zeiss Axio Observer A1 microscope (Zeiss, Oberkochen, Germany), using a 10× objective. ZEN software (Zeiss, Jena, Germany) was used for acquiring images. Fluorescence quantitation and muscle area were performed using FIJI (NIH). Surface plots were created in FIJI (NIH). Fluorescence volume was quantified using Imaris Software v9.1.2.
Immunofluorescence microscopy. Mice were systemically injected with recombinant annexin A6 with a C-terminal HIS tag (R&D). Muscle was harvested and flash frozen. […]

[5] = 1 mg/kg retro-orbital once every 3 days for 12 days, vs control

B1: recombinant annexin A6: recombinant human annexin A6 protein with C-terminal HIS tag (5186-A6-050, R&D systems); mouse protein from Northwestern core in one cohort (protein, UniProt P08133 2-673, looked up)
Annexin A6: AKPAQGAKYRGSIHDFPGFDPNQDAEALYTAMKGFGSDKEAILDIITSRSNRQRQEVCQSYKSLYGKDLIADLKYELTGKFERLIVGLMRPPAYCDAKEIKDAISGIGTDEKCLIEILASRTNEQMHQLVAAYKDAYERDLEADIIGDTSGHFQKMLVVLLQGTREEDDVVSEDLVQQDVQDLYEAGELKWGTDEAQFIYILGNRSKQHLRLVFDEYLKTTGKPIEASIRGELSGDFEKLMLAVVKCIRSTPEYFAERLFKAMKGLGTRDNTLIRIMVSRSELDMLDIREIFRTKYEKSLYSMIKNDTSGEYKKTLLKLSGGDDDAAGQFFPEAAQVAYQMWELSAVARVELKGTVRPANDFNPDADAKALRKAMKGLGTDEDTIIDIITHRSNVQRQQIRQTFKSHFGRDLMTDLKSEISGDLARLILGLMMPPAHYDAKQLKKAMEGAGTDEKALIEILATRTNAEIRAINEAYKEDYHKSLEDALSSDTSGHFRRILISLATGHREEGGENLDQAREDAQVAAEILEIADTPSGDKTSLETRFMTILCTRSYPHLRRVFQEFIKMTNYDVEHTIKKEMSGDVRDAFVAIVQSVKNKPLFFADKLYKSMKGAGTDEKTLTRIMVSRSEIDLLNIRREFIEKYDKSLHQAIEGDTSGDFLKALLALCGGED
modifications: C-terminal His tag
notes: recombinant human annexin A6 protein with C-terminal HIS tag (5186-A6-050, R&D systems); mouse protein from Northwestern core in one cohort
- FM 4-64 fluorescence / dye uptake after laser injury [1]: reduced
- FM 4-64 fluorescence / dye uptake after laser injury ([1]; listed as rANXA6): significantly smaller; also recorded: significantly less
- percentage of injured muscle (internal myonuclei), histology [2]: reduced
- percentage of injured muscle (internal myonuclei), histology ([2]; listed as rANXA6): reduction
- serum CK fold change post/pretreatment (Day 14/Day 0) ([3]; 1 mg/kg every 3 days for 14 days, compared to recombinant annexin A2, proteins from Northwestern's Protein Production Core): significantly reduced
- serum creatine kinase (CK) at day 14 [3]: significantly decreased
- serum creatine kinase (CK) at day 14 ([3]; listed as rANXA6): lower
- serum creatine kinase (CK) [3, 5]: reduced
- serum lactate dehydrogenase (LDH) [3, 5]: reduced
- histology of gastrocnemius/soleus muscle ([3]; 14-day dosing, vs PBS): qualitatively less injury
- anti-HIS staining at the sarcolemma / plasma membrane ([4]; listed as rANXA6): localized to the plasma membrane
- anti-HIS staining at the sarcolemma / plasma membrane ([4]; listed as recombinant annexin A6-HIS): presence of recombinant annexin A6-HIS at the sarcolemma
